According to the DeepSol protein solubility set:

Assay: soluble on expression in E. coli; label from the status in PepcDB or PDB records
With “MAEAIFSAIVGDVIGRVISLVVSNFNGDHSTEVKLQRICRMLIKIHSVVEEAKGRQITNHGTLEWLSELIDGAYQGRYLLDTIGCGEPDLDDKNRDEVDPKPFSLSKFNPAKRVRVAAFTVRNILSRHDIGVDEIDRVVESLQSMCGDLKEFMMLLQACQPIHRPLATNIFIEGQMFGRHVKKEMIINFLLHEDDLPRGKLGVLPILGDIGVGKTTLVQHACDDARVRSHFTTILLFNFSHTYKMEMCEPKPVLRPKHVIGDVGNSDDPLHELEQSFFNKRFLIVFEDVDIHKKNMLEELLKSLSCGKQGSKIIVTTSNKHVTTIGTVQPIKLKFLPCPEYWFFFKAHAFAGTDVQENPRLVAAGKSIAAKLNGSFFGAKIIGAILKENPDPKFWCTVLQRDIGGLSLLGDGLGYIADLVEILLPSRLSVKEVFVSKNSLSSETELARLQGLCLPCPSSAPLATHSSELSLAKATSYERVLLCKAVLPFYSLYYTAKCAVDSENCYSKFSVV” the “soluble on expression in E. coli” value was “soluble”.
In the case of “MAEAKQWDVKQLDRIVEKMIDTVQHSKDEIFRIGEQSRQEHDHLLRELEEVKRLTVQAIEEADQLEMKARQARRRLSEVSQNFSTHSEQDIREAYEQAHELHMKLTMVREREKQLRLRRDELERRLASLAQIIERADYLVGQITVVLHYLNSDFRQVGELIEGAKQKQEFGLKIIEAQEEERRRLSREIHDGPAQLLAHVLLRSDLVEKVIKERGTEAAIAEIRDFRKMVRSALSEVRRIIYDLRPMALDDLGLVPTLKKYLQTTEEYNKGVHISFVHIGEEIRLPSRMEAAVFRLVQESVQNALKHAEARHIDVKMEVTCDHLLVSVKDDGKGFDPSVKKENAFGLIGMRERVELLGGTLDIRSKIGSGTTVFIRVPLDRSTDKTNKEERKR”, the “soluble on expression in E. coli” value is reported as “not soluble”.
With “MAEAVLRVARRQLSQRGGSGAPILLRQMFEPVSCTFTYLLGDRESREAVLIDPVLETAPRDAQLIKELGLRLLYAVNTHCHADHITGSGLLRSLLPGCQSVISRLSGAQADLHIEDGDSIRFGRFALETRASPGHTPGCVTFVLNDHSMAFTGDALLIRGCGRTDFQQGCAKTLYHSVHEKIFTLPGDCLIYPAHDYHGFTVSTVEEERTLNPRLTLSCEEFVKIMGNLNLPKPQQIDFAVPANMRCGVQTPTALEHHHHHH” the “soluble on expression in E. coli” value was “soluble”.
In the case of “MAEEKFFLGRQPILDREQRLYGFELLFRSADSLHANVTDYLQASASVIFDALSSFGFREILGKHKGFINVNADVLMSEALELLPPEKVVIELLEHVPITETVISRCHELREKGFSLALDDHIYEPVYEPLYHLVDVIKVDLFRTGMENLASEVETLRKWNTKLLAEKVETVEQYERCADLGFTYFQGYYFARP”, the “soluble on expression in E. coli” value is reported as “not soluble”.
In the case of “MAEFKEQVLDILEEVCENDIVKENLDVQLFEEGILDSFAVVSLLVEFQERLDIEVSISDFDRDEWATPNMVIKKLEEIR”, the “soluble on expression in E. coli” value is reported as “not soluble”.
In the case of “MAEGLRERKKRQTRQYISDVATGLFLERGFEAVTVAEVADAANVSVNTVYNYFPAKEDLFLDRSKGVIDRLSRWVRGRRDGESAAGAVLRELRDEVESVSPRVGLMDGYATFMKVIQDSPALRSRMWAIGQEVLLNLEHTLREETGSADDDMTPTLMAGQINWLHGTVLAAIGGRMVAGGKPSEVSRDMLLLLDEMEELLSEKVLNYAVRGAL”, the “soluble on expression in E. coli” value is reported as “not soluble”.
With “MAEHPIQGLMETAMESIKEMVDVNTIVGDAVQAPDGTVIIPISKVTFGFAAGGGEFASCCSVDEKGEDSSDDSSKPEIKFPFAGGSGAGVSINPVAFMVVGQGQIKLLPVNINSSLEKILDLIPEIIEKTKDSVKKNLKVKKEIKPGNGESCAKSSKEDENE” the “soluble on expression in E. coli” value was “not soluble”.
For “MAEHRGGSGNFAENREKASEAGRKGGQHSGGNFKNDPQRASEAGKKGGQNSHGGRKSDNS”, the “soluble on expression in E. coli” value was “not soluble”.
For “MAEIIFNLSADDEGIGKHNYLCSLISQQSARCISGYVFSSSGFGESTTDVVFAGNGLIYENGYLLARSERFCMEEQLIINEIDVECIRAERRVNTTFAANKANCPGKEAVRISTEFVNSKDLNLTRTFNPHPFVPQGNELNSRLEHHHHHH”, the “soluble on expression in E. coli” value was “not soluble”.
In the case of “MAELQMLLEEEIPGGRRALFDSYTNLERVADYCENNYIQSADKQRALEETKAYTTQSLASVAYLINTLANNVLQMLDIQASQLRRMESSINHISQTVDIHKEKVARREIGILTTNKNTSRTHKIIAPANLERPVRYIRKPIDYTILDDIGHGVKVSTQNMKMGGLPRTTPPTQKPPSPPMSGKGTLGRHSPYRTLEPVRPPVVPNDYVPSPTRNMAPSQQSPVRTASVNQRNRTYSSSGSSGGSHPSSRSSSRENSGSGSVGVPIAVPTPSPPSVFPGHPVQFYSMNRPASRHTPPTIGGSLPYRRPPSITSQTSLQNQMNGGPFYSQNPVSLAPPPPSILQVTPQLPLMGFVARVQENISDTPPPPPPVEEPVFDESPPPPPPPEDYEEEEAAVVEYSDPYAEEDPPWAPRSYLEKVVAIYDYTKDKEDELSFQEGAIIYVIKKNDDGWYEGVMNGVTGLFPGNYVESIMHYSE”, the “soluble on expression in E. coli” value is reported as “soluble”.
In the case of “MAENKQASEGLAEDLIRSMVQTASIELHLKTLVEKRQSEMDNGLIDTNDFNRVNEQIDVLKNLKEELFEVTEQRRQDMRTLFDLFEGKGDKEQWCIVKHAAMAMYTAFEAWQASDNDRLLYQICIEKNAYFIKKITQFTGVPITECASCFSDMMKGAIDDEG”, the “soluble on expression in E. coli” value is reported as “not soluble”.
In the case of “MAERGGDGGESERFNPGELRMAQQQALRFRGPAPPPNAVMRGPPPLMRPPPPFGMMRGPPPPPRPPFGRPPFDPNMPPMPPPGGIPPPMGPPHLQRPPFMPPPMSSMPPPPGMMFPPGMPPVTAPGTPALPPTEEIWVENKTPDGKVYYYNARTRESAWTKPDGVKVIQQSELTPMLAAQAQVQAQAQAQAQAQAQAQAQAQAQAQAQAQAQAQAQAQAQAQAQAQAQAQAQAQAQAQAQAQVQAQVQAQVQAQAVGASTPTTSSPAPAVSTSTSSSTPSSTTSTTTTATSVAQTVSTPTTQDQTPSSAVSVATPTVSVSTPAPTATPVQTVPQPHPQTLPPAVPHSVPQPTTAIPAFPPVMVPPFRVPLPGMPIPLPGVLPGMAPPIVPMIHPQVAIAASPATLAGATAVSEWTEYKTADGKTYYYNNRTLESTWEKPQELKEKEKLEEKIKEPIKEPSEEPLPMETEEEDPKEEPIKEIKEEPKEEEMTEEEKAAQKAKPVATAPIPGTPWCVVWTGDERVFFYNPTTRLSMWDRPDDLIGRADVDKIIQEPPHKKGMEELKKLRHPTPTMLSIQKWQFSMSAIKEEQELMEEINEDEPVKAKKRKRDDNKDIDSEKEAAMEAEIKAARERAIVPLEARMKQFKDMLLERGVSAFSTWEKELHKIVFDPRYLLLNPKERKQVFDQYVKTRAEEERREKKNKIMQAKEDFKKMMEEAKFNPRATFSEFAAKHAKDSRFKAIEKMKDREALFNEFVAAARKKEKEDSKTRGEKIKSDFFELLSNHHLDSQSRWSKVKDKVESDPRYKAVDSSSMREDLFKQYIEKIAKNLDSEKEKELERQARIEASLREREREVQKARSEQTKEIDREREQHKREEAIQNFKALLSDMVRSSDVSWSDTRRTLRKDHRWESGSLLEREEKEKLFNEHIEALTKKKREHFRQLLDETSAITLTSTWKEVKKIIKEDPRCIKFSSSDRKKQREFEEYIRDKYITAKADFRTLLKETKFITYRSKKLIQESDQHLKDVEKILQNDKRYLVLDCVPEERRKLIVAYVDDLDRRGPPPPPTASEPTRRSTK”, the “soluble on expression in E. coli” value is reported as “soluble”.
For “MAEVVNISKSASFSKQEKEFSDFQKSKESNEKILNKESNRFTLHPIMYPEVWNFYKKAEASFWTAEEIDLSSDLKDFEKLNVNEKHFIKHVLAFFAASDGIVLENLASKFLREVEIIEAKKFYSFQIAVENIHSETYSLLIDNYIKDEKERLNLFHAIENIPAIKNKALWAAKWINDTNSFAERIVANACVEGILFSGSFCAIFWFKKQNKLHGLTFSNELISRDEGLHTDFNCLIYSLLENKLPENVVQNIVKEAVEVERSFICESLPCDLIGMNSRLMSQYIEFVADRLLECLGCSKVFHSKNPFNWMDLISLQGKTNFFEKRVADYQKSGVMAQRKEQVFSLNTDF”, the “soluble on expression in E. coli” value was “soluble”.
With “MAFAKDLKRRNVLQEAVYHRIKADFDLGAQAAVRTVKKVCDAYATFKANLRAGNYGLEGSKRRIKAESKPVRFRETSAQPFDDRMLTWNLDTKMVSVWTVAGRLKGIPFVCSPEAMRLLAQRKGESDLVMRDGMFFLLATIDIPEPEVSGPDGFLGVDLGIVNIATTSDGRIMSSRQVNRYRQRKRDLRGKLQKKRTKSAARVLKRQRRKEARYATQRNHIIARKLVHTAERTSRGIGLEDLTGIRQRVTAREDQRARLHSWAFAQLGAFVEYKAKRAGVAVVHVDPRNTSRQCSECWHTHRTNRVTRARFVCRSCGIVLHADHNGSRNIAHRADAAWQRGAANRPRTPAAALEHHHHHH” the “soluble on expression in E. coli” value was “not soluble”.
